Drawing on PMC8005443, this text covers Kd, dH and stoichiometry N for two substances.

Experiment [1] has as its target PI3Kγ-RBD (residues 193–316) (human) (UniProt P48736). Kind of experiment: ITC. (In general: In ITC the heat of successive injections is recorded.)
Experiment [2] addresses PI3Kα-RBD (Human PI3Kα residues 157–300) (human) (UniProt P42336). Kind of experiment: ITC.

“KRAS4B^G12V (from UniProt P01116-2 1-169) (enzyme)”: in experiment [1], the Kd was 2400 nM, the dH is -4.16 kcal/mol and the stoichiometry N stood at 0.81. In addition, in experiment [2], the Kd worked out at 2.3 µM, the dH was -3.82 kcal/mol and the stoichiometry N amounted to 1.07.

As to “KRAS4B^Q61H (from UniProt P01116-2 1-169) (enzyme)”, in experiment [1], the dissociation constant (Kd) is 2600 nM, the dH was -2.97 kcal/mol and the stoichiometry N worked out at 0.91. Besides, in experiment [2], the dissociation constant (Kd) was 4 µM, the dH was -2.59 kcal/mol and the stoichiometry N is 1.06.

What is called Kd is the equilibrium constant for the complex coming apart. For orientation: stoichiometry N means a count of units in the complex or per binding partner.
